Experiment [1] addresses T1, ALKTG-EGFL (human ALK amino acids 648-1025) (human, UniProt Q9UM73 648-1025, N-linked glycans; EndoH-trimmed (deglycosylated) for crystals and SEC-MALLS).
T1 construct: The C-terminal Fc-His6 tag was removed by caspase 3; also called ALK (in BLI, SEC-MALLS and ITC)
Briefly: BLI, biotinylated ALKAL2 F97E on streptavidin biosensors, ALKTG-EGFL in solution. The text has this: (§1) FIGS. 10A and 10B Representative response curves as measure by biolayer-interferometry (BLI) for the interaction of WT ALKAL1 and ALKAL1 mutants (containing charge-reversal mutations of residues involved in site 1) (FIG. 10A) and WT ALKAL2 and ALKAL2 mutants (FIG. 10B) with ALK_TG-EGFL and LTK_TG-EGFL. For WT ALKALs LTK curves were fitted with a 2:1 binding model (red) while for ALK a 1:1 model was used. Start and end concentrations of the 3-fold dilution series used for the WT measurements is shown as an inset while for all mutants a […] dilution series from 6.4 μM-400 nM was used.
(§2) All measurements of binding kinetics and dissociation constants were performed using an Octet Red 96 (Forté Bio) in assay buffer (20 mM HEPES pH 7.4, 150 mM NaCl, 0.02% (w/v) BSA, 0.002% (v/v) Tween 20) at 298K. ALKALs were immobilized to a level of 0.5 nm on streptavidin-coated biosensors (Forté Bio). To verify that no a specific binding was present during the assay, non-functionalized biosensors were used as a control by measuring in parallel all ligand concentrations as well as running buffer. For all mutants a two-fold dilution series from 6.4 μM-400 nM was employed. Data analysis was performed using the Data Analysis software 9.0.0.14 (Forté Bio) and binding curves were exported to Prism8 (Graphpad Software) for plotting of curves.
In general terms: In BLI a coated tip is dipped into the sample, and binding shifts an interference pattern.

The target in experiment [2] is T2, LTKTG-EGFL (human LTK amino acids 63-420) (human, UniProt P29376 63-420).
T2 construct: Fc-His6 tag removed by caspase 3; also called LTK (in BLI, SEC-MALLS and ITC)
T2 sequence: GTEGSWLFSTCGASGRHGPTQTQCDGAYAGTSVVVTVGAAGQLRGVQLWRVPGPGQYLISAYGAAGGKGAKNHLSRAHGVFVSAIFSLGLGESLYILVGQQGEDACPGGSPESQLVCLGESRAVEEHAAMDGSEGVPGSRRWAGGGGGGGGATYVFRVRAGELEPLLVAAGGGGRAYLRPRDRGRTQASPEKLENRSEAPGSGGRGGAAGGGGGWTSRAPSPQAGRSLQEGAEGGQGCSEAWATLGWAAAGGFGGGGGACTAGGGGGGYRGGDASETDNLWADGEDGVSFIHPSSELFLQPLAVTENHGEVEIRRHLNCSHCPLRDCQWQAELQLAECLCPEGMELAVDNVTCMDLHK
Briefly: BLI, biotinylated ALKAL2 F97E on streptavidin biosensors, LTKTG-EGFL in solution, dilution series 6.4 µM-400 nM; only component 1 is printed.
Text: as §1, §2

Experiment [3] has as its target T1, ALKTG-EGFL (human ALK amino acids …). Nature of the experiment: BLI, biotinylated ALKAL2 R136E on streptavidin biosensors, ALKTG-EGFL in solution, dilution series 6.4 µM-400 nM.
Text: as §1, §2

For experiment [4], the target named is T2, LTKTG-EGFL (human LTK amino acids …). Briefly: BLI, biotinylated ALKAL2 R136E on streptavidin biosensors, LTKTG-EGFL in solution, dilution series 6.4 µM-400 nM.
Text: as §1, §2

For experiment [5] the target is unchanged. Nature of the experiment: BLI, biotinylated ALKAL1 F76E on streptavidin biosensors, LTKTG-EGFL in solution, dilution series 6.4 µM-400 nM, biphasic fit, component 1.
Text: as §1, §2

Experiment [6] shares this target. Nature of the experiment: BLI, biotinylated ALKAL1 F76E on streptavidin biosensors, LTKTG-EGFL in solution, dilution series 6.4 µM-400 nM, biphasic fit, component 2.
Text: as §1, §2

For experiment [7] the target is unchanged. Nature of the experiment: BLI, biotinylated ALKAL1 R115E on streptavidin biosensors, LTKTG-EGFL in solution, dilution series 6.4 µM-400 nM.
Text: as §1, §2

Experiment [8] has as its target T3, LTKTG (human LTK amino acids 63-379) (human, UniProt P29376 63-379).
T3 construct: also called LTK TG supradomain
T3 sequence: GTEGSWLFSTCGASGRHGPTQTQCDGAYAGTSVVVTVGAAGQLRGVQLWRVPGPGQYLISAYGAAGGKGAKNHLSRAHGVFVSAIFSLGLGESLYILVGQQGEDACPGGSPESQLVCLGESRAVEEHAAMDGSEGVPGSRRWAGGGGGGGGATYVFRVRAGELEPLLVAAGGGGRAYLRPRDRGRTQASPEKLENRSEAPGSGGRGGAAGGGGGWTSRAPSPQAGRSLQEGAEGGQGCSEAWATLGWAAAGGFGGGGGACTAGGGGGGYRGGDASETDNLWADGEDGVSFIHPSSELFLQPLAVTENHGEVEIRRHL
Nature of the experiment: ITC at 310 K, LTKTG (10 µM) titrated with ALKAL1FL (40 µM), one-site model. As to the method:
FIG. 12H, ITC experiments for the titration of LTKTG (10 μM) with ALKAL1FL (40 μM) Standard deviations were calculated based on 2 measurements.
(§3) Experiments were performed using a MicroCal PEAQ-ITC instrument at 310K. Proteins used in ITC experiments were expressed in HEK293S cells grown in suspension. As a final purification step all proteins were buffer exchanged to the same HBS buffer via size-exclusion chromatography. Titrations were preceded by an initial injection of 0.5 μL. The injection spacing was optimized per experiment to allow for the signal to get back to a stable baseline. Throughout the titration the sample was stirred at a speed of 750 r.p.m. Data were analyzed using the PEAQ-ITC analysis software (version 1.1.0.1262, Malvern) and fit using a “one set of sites” model.

For experiment [9], the target named is T2, LTKTG-EGFL (human LTK amino acids …). Nature of the experiment: ITC at 310 K, LTKTG-EGFL (7.2 µM) titrated with ALKAL1FL (55 µM), one-site model. As for the experimental part:
The right panel represents the binding isotherm obtained from the integration of the raw data and fitted to a one-site model. Standard deviations were calculated based on 3 measurements.
as §3

T1 sequence (Q9UM73 648-1025): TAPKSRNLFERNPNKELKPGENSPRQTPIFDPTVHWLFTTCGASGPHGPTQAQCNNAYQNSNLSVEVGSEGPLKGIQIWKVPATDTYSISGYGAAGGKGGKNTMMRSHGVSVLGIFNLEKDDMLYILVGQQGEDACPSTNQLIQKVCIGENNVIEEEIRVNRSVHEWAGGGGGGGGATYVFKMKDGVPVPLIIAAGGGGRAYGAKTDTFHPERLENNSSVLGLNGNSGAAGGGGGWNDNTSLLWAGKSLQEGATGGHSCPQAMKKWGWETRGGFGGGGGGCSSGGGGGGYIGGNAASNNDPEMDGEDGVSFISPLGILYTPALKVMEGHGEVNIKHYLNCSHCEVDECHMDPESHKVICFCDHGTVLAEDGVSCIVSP

B1: ALKAL2^F97E (residues 78-152) (ligand, human, UniProt Q6UX46 78-152, looked up)
chain: PSPEQRVEIVPRDLRMKDKELKHLTGPLYFSPKCSKHFHRLYHNTRDCTIPAYYKRCARLLTRLAVSPVCMEDKQ
notes: range 78-152; Avi-tagged and biotinylated in BLI; used as purified protein in SEC-MALLS and Ba/F3 assays; also called ALKAL2 site 2 mutant F97E
In general, Kd refers to the constant that tells how readily two partners part at equilibrium. One may read the koff as a measure of how fast the partners let go of each other. Lower therefore signals slow dissociation. The term kon denotes the second-order rate constant of association. In experiment [1], B1 showed a dissociation constant Kd of 200 nM, a koff of 0.071 s⁻¹ and a kon of 450000 M⁻¹ s⁻¹. Further, in experiment [2], the Kd amounted to 8.4 µM, the dissociation rate constant (koff) is 0.16 s⁻¹ and the kon came to 53000 M⁻¹ s⁻¹.

B2: ALKAL2^R136E (residues 78-152) (ligand, human, UniProt Q6UX46 78-152, looked up)
chain: PSPEQRVEIVPRDLRMKDKFLKHLTGPLYFSPKCSKHFHRLYHNTRDCTIPAYYKRCAELLTRLAVSPVCMEDKQ
notes: range 78-152; also called ALKAL2 site 1 mutant R136E
In experiment [3], B2 registered a Kd of 1500 nM and a koff of 0.8 s⁻¹. Moreover, in [4], the dissociation constant (Kd) amounted to 5.9 µM, the off-rate (koff) is 0.12 s⁻¹ and the kon was found to be 20000 M⁻¹ s⁻¹.

B3: ALKAL1^F76E (residues 57-129) (ligand, human, UniProt Q6UXT8 57-129, looked up)
chain: PSGSRSAEIFPRDSNLKDKEIKHFTGPVTFSPECSKHFHRLYYNTRECSTPAYYKRCARLLTRLAVSPLCSQT
notes: range 57-129; Avi-tagged and biotinylated in BLI; used as purified protein in SEC-MALLS and Ba/F3 assays; also called ALKAL1 site 2 mutant
On to B3, for which, in experiment [5], binding was characterised by a dissociation constant (Kd) of 350 nM, the koff is 0.0005 s⁻¹ and the kon was found to be 4000 M⁻¹ s⁻¹. In experiment [6], this molecule yielded a Kd of 1500 nM, a koff of 0.11 s⁻¹ and a kon of 60000 M⁻¹ s⁻¹.

B4: ALKAL1^R115E (residues 57-129) (ligand, human, UniProt Q6UXT8 57-129, looked up)
chain: PSGSRSAEIFPRDSNLKDKFIKHFTGPVTFSPECSKHFHRLYYNTRECSTPAYYKRCAELLTRLAVSPLCSQT
notes: range 57-129; also called ALKAL1 site 1 mutant R115E
Turning to B4, in experiment [7], binding was put at a Kd of 3.1 µM, the off-rate (koff) was found to be 0.041 s⁻¹ and the kon was 13000 M⁻¹ s⁻¹.

B5: ALKAL1FL (full-length ALKAL1, residues 28-129) (ligand, human, UniProt Q6UXT8 28-129, looked up)
chain: RPRGRRGARVTDKEPKPLLFLPAAGAGRTPSGSRSAEIFPRDSNLKDKFIKHFTGPVTFSPECSKHFHRLYYNTRECSTPAYYKRCARLLTRLAVSPLCSQT
notes: range 28-129; Sumostar tag removed by caspase 3
Consider B5, for which, in experiment [8], binding was characterised by a dissociation constant (Kd) of 24 nM, the ΔG is -10.8 kcal/mol and the ΔH was -29.6 kcal/mol. In experiment [9], this molecule came in with a Kd of 11 nM, a ΔG of -11.3 kcal/mol and a ΔH of -31.7 kcal/mol.

The record behind these values is patent US20250027060A1 (VIB VZW, published 2025).
